Results published in patent EP4471049A1 (Zealand Pharma A/S, priority 2023, dated 2024).
Where two headings read alike, the source gives them in different places. *1 amine or outer side, *2 acyl side, *3 side chain or, on linkers, in order; H or OH if unused. Bridges are numbered along the chain shown (N, C = ends). [ ]: non-standard residue; d: D form. The star is where a group is joined. 4‑Aminomethyl‑phenylacetyl = 4-aminomethyl-phenylacetyl unit, its amine closes the lactam, O=C(Cc1ccc(CN[*:1])cc1)[*:2]; NH(2-(3-pyridyl)ethyl) = c1cncc(CCN*)c1; 2Nal = N[C@@H](Cc1ccc2ccccc2c1)C(=O)O; AEF = NCCOc1ccc(C[C@H](N)C(=O)O)cc1; 3Pal = N[C@@H](Cc1cccnc1)C(=O)O; αMeL = CC(C)C[C@](C)(N)C(=O)O; Dab = NCC[C@H](N)C(=O)O

T1: human IL-23R endogenously expressed on DB cells (human, UniProt Q5VWK5 24-629)
T1 sequence (looked up): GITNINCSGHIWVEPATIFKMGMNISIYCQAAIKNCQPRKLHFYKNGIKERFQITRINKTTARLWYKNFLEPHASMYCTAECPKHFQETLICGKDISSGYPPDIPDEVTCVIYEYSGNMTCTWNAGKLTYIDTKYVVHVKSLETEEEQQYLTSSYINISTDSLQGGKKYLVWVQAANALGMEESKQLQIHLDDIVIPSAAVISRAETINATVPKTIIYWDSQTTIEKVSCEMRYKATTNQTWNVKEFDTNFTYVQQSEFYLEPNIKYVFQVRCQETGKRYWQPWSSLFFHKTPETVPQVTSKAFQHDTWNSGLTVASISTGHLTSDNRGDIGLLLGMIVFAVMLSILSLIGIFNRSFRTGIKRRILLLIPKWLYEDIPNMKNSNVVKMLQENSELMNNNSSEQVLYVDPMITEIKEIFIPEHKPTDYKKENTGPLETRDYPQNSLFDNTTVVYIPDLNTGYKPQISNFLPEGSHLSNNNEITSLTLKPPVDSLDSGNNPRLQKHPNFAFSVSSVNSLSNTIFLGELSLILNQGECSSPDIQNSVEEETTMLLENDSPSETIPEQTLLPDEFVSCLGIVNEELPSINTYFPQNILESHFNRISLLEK

T2: Nluc-IL23R fusion protein (human, UniProt Q5VWK5 22-629)
T2 construct: range 22-629; expressed with a secretion signal in HEK293 cells; used as crude membrane preparation; also called hIL-23R; human IL-23R; not shown: Nanoluc protein from the expression plasmid N1371 (Promega), N-terminal of IL-23R
T2 sequence (looked up): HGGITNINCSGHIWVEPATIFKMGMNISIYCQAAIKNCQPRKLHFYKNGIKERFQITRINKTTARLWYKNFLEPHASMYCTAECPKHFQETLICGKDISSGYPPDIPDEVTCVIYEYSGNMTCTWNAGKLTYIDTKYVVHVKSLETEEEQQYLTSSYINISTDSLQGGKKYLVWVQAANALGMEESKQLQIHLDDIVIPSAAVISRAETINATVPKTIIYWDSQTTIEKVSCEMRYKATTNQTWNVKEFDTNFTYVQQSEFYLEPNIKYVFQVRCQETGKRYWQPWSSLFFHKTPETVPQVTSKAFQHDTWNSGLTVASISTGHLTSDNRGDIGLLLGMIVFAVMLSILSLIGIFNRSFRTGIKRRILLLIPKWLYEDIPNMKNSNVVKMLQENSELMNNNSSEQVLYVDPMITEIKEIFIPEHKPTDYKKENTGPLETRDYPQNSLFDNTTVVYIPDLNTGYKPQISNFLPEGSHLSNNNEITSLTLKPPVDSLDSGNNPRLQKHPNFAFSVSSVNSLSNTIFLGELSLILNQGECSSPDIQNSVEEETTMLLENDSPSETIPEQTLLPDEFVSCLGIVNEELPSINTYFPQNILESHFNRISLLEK

B1: Ref 122 (peptide)
peptide: [4‑Aminomethyl‑phenylacetyl]SEWQ[Dab][AEF][2Nal][αMeL]E[Dab][3Pal]-NH2
modifications: lactam N-10, 3-6
SMILES: CC(C)C[C@]1(C)NC(=O)[C@H](Cc2ccc3ccccc3c2)NC(=O)[C@H](Cc2ccc(OCCN)cc2)NC(=O)[C@@H]2CCNC(=O)CC[C@H](NC(=O)[C@H](CO)NC(=O)Cc3ccc(cc3)CNC(=O)CC[C@@H](C(=O)N[C@@H](CCN)C(=O)N[C@@H](Cc3cccnc3)C(N)=O)NC1=O)C(=O)N[C@@H](Cc1c[nH]c3ccccc13)C(=O)N[C@@H](CCC(N)=O)C(=O)N2
B2: Compound 7 (peptide)
peptide: [4‑Aminomethyl‑phenylacetyl]SEWQ[Dab][AEF][2Nal][αMeL]E[Dab]-{NH(2-(3-pyridyl)ethyl)}
modifications: lactam N-10, 3-6
SMILES: CC(C)C[C@]1(C)NC(=O)[C@H](Cc2ccc3ccccc3c2)NC(=O)[C@H](Cc2ccc(OCCN)cc2)NC(=O)[C@@H]2CCNC(=O)CC[C@H](NC(=O)[C@H](CO)NC(=O)Cc3ccc(cc3)CNC(=O)CC[C@@H](C(=O)N[C@@H](CCN)C(=O)NCCc3cccnc3)NC1=O)C(=O)N[C@@H](Cc1c[nH]c3ccccc13)C(=O)N[C@@H](CCC(N)=O)C(=O)N2

What was measured:
[1] = target: T1, human IL-23R endogenously expressed on …; assay: cell-based or functional assay
[2] = target: T1, human IL-23R endogenously expressed on …; assay: cell-based or functional assay; remark: listed apart in the source
[3] = target: T2, Nluc-IL23R fusion protein; assay: BRET competition vs TAMRA-labelled peptide, Nluc-IL23R membranes
[4] = target: T1, human IL-23R endogenously expressed on …; assay: cell-based or functional assay; remark: listed apart in the source
[5] = target: T1, human IL-23R endogenously expressed on …; assay: cell-based or functional assay; remark: listed apart in the source
[6] = target: T1, human IL-23R endogenously expressed on …; assay: cell-based or functional assay; remark: listed apart in the source
[7] = target: T2, Nluc-IL23R fusion protein; assay: BRET competition vs TAMRA-labelled peptide, Nluc-IL23R membranes; remark: listed apart in the source

| Binder | hIL-23 (pSTAT3) antagonist % inhibition [1] | hIL-23 (pSTAT3) antagonist IC50 [1] | IC50 (pSTAT3) [2] | % displacement (hIL-23R binding) [3] | IC50 (pSTAT3) [4] | IC50 (pSTAT3) [5] | IC50 (pSTAT3) [6] | % displacement (hIL-23R binding) [7] |
| --- | --- | --- | --- | --- | --- | --- | --- | --- |
| B1 | 99% | 0.028 nM | 0.028 nM | 97% | 0.028 nM | 0.028 nM | 0.028 nM |  |
| B2 | 98% | 0.13 nM |  |  |  | 0.13 nM |  | 102% |
